According to the supplement of paper PMC7125110:
± gives the standard error. For part of these data: Variants at the floor of the assay were thinned out.

B1: glmS ribozyme (parent)
chain: AUAAAAGCGCCAGAACUACAGAAAUGUAGUUGACGAGGAGGAGGUUUAUCGAAUUUUCGGCGGAUGCCUCCAAA

How the values were obtained:
Settings in all cases: with glucosamine-6-phosphate
glucosamine-6-phosphate [1] = variants of: B1; assay: kcat; higher = faster cleavage; RNA array
Procedure, shortened: (§1)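 On sequenced MiSeq chips, barcoded ribozyme variants were made in situ by E. coli RNA polymerase and followed at 37 °C through a hybridised Cy3 probe. Glucosamine-6-phosphate was flowed in at 40 μM to 10 mM in HEPES/KCl/Mg(OAc)2 buffer. Exponential fits to normalised per-tile medians gave kobs, and weighted Michaelis–Menten fits gave kcat and KM.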

glucosamine-6-phosphate [2] = variants of: B1; assay: self-cleavage kobs at 40 uM GlcN6P; higher = faster cleavage; RNA array
Procedure, shortened: as §1

glucosamine-6-phosphate [3] = variants of: B1; assay: self-cleavage kobs at 160 uM GlcN6P; higher = faster cleavage; RNA array
Procedure, shortened: as §1

glucosamine-6-phosphate [4] = variants of: B1; assay: self-cleavage kobs at 10000 uM GlcN6P; higher = faster cleavage; RNA array
Procedure, shortened: as §1

glucosamine-6-phosphate [5] = variants of: B1; assay: self-cleavage kobs at 640 uM GlcN6P; higher = faster cleavage; RNA array
Procedure, shortened: as §1

glucosamine-6-phosphate [6] = variants of: B1; assay: self-cleavage kobs at 2500 uM GlcN6P; higher = faster cleavage; RNA array
Procedure, shortened: as §1

glucosamine-6-phosphate [7] = variants of: B1; assay: KM; higher = weaker cofactor use; RNA array
Procedure, shortened: as §1

Variant | kcat (glucosamine-6-phosphate [1]) | self-cleavage kobs at 40 uM GlcN6P (glucosamine-6-phosphate [2]) | self-cleavage kobs at 160 uM GlcN6P (glucosamine-6-phosphate [3]) | self-cleavage kobs at 10000 uM GlcN6P (glucosamine-6-phosphate [4]) | self-cleavage kobs at 640 uM GlcN6P (glucosamine-6-phosphate [5]) | self-cleavage kobs at 2500 uM GlcN6P (glucosamine-6-phosphate [6]) | KM (glucosamine-6-phosphate [7])
G41C C58U | < 1e-05 s⁻¹ | < 1e-05 s⁻¹ | < 1e-05 s⁻¹ | < 1e-05 s⁻¹ |  |  | 
G43A U45G | 0.0116 ± 0.0056 s⁻¹ | 0.000563 ± 0.0001 s⁻¹ | 0.000816 ± 0.00022 s⁻¹ | 0.00965 ± 0.0026 s⁻¹ | 0.00306 ± 0.00054 s⁻¹ | 0.00969 ± 0.0023 s⁻¹ | 
G40U A48C | 5.25e-05 ± 2.1e-05 s⁻¹ |  | < 1e-05 s⁻¹ | 3.45e-05 ± 9.8e-06 s⁻¹ |  |  | 
G40U A48U | 7.9e-05 ± 9.5e-06 s⁻¹ | < 1e-05 s⁻¹ |  | 5.95e-05 ± 8.8e-06 s⁻¹ |  | 3.77e-05 ± 1.6e-05 s⁻¹ | 3220 ± 1300 µM
G41U U54C | 0.00115 ± 0.00032 s⁻¹ | 0.000109 ± 1.9e-05 s⁻¹ | 0.000197 ± 4.5e-05 s⁻¹ | 0.00117 ± 0.00018 s⁻¹ | 0.000389 ± 0.0001 s⁻¹ | 0.00118 ± 0.00025 s⁻¹ | 
A42G U54C | 0.0476 ± 0.013 s⁻¹ | 0.000795 ± 0.00016 s⁻¹ | 0.00208 ± 0.001 s⁻¹ | 0.0394 ± 0.008 s⁻¹ | 0.0066 ± 0.0019 s⁻¹ |  | 3020 ± 1100 µM
G43U U55C | 3.2e-05 ± 2.4e-06 s⁻¹ |  |  | 3.01e-05 ± 8.7e-06 s⁻¹ |  | 3.2e-05 ± 1.2e-05 s⁻¹ | 
G41U A42U | 0.00136 ± 0.00056 s⁻¹ | 9.43e-05 ± 1.1e-05 s⁻¹ | 0.000106 ± 1.9e-05 s⁻¹ | 0.00108 ± 0.00015 s⁻¹ | 0.000464 ± 5.5e-05 s⁻¹ | 0.00119 ± 0.00014 s⁻¹ | 
A42U C67G | 0.000997 ± 0.00019 s⁻¹ | 6.76e-05 ± 8.5e-06 s⁻¹ | 0.000114 ± 2.5e-05 s⁻¹ | 0.000939 ± 8.5e-05 s⁻¹ | 0.000369 ± 4.9e-05 s⁻¹ | 0.00082 ± 0.00012 s⁻¹ | 853 ± 310 µM
G44U U47G | 1.56e-05 ± 2.1e-07 s⁻¹ |  |  |  |  |  | 2560 ± 150 µM
G44U U47A | 0.00016 ± 1.2e-05 s⁻¹ |  |  | 0.000136 ± 1.6e-05 s⁻¹ | 4.97e-05 ± 2.4e-05 s⁻¹ | 9.01e-05 ± 1.7e-05 s⁻¹ | 1850 ± 460 µM
G40U U56G | 0.00147 ± 0.00055 s⁻¹ | 4.98e-05 ± 1.7e-05 s⁻¹ | 0.000107 ± 1.6e-05 s⁻¹ | 0.000885 ± 0.00019 s⁻¹ | 0.000431 ± 6e-05 s⁻¹ | 0.00136 ± 0.00015 s⁻¹ | 
G43U U54C | 6.24e-05 ± 1.8e-06 s⁻¹ |  |  | 3.65e-05 ± 1.6e-05 s⁻¹ |  |  | 7100 ± 410 µM
A42G U57C | 0.000292 ± 1.6e-05 s⁻¹ |  |  | 0.000242 ± 3.4e-05 s⁻¹ | 6.98e-05 ± 2e-05 s⁻¹ | 0.000145 ± 2.7e-05 s⁻¹ | 2270 ± 300 µM
G44U A53U | 0.000149 ± 2.2e-05 s⁻¹ |  |  | 0.000129 ± 1e-05 s⁻¹ |  | 0.00015 ± 6e-05 s⁻¹ | 
G44U A53C | 0.000114 ± 1.6e-05 s⁻¹ |  |  | 9.5e-05 ± 1.6e-05 s⁻¹ |  | 8.9e-05 ± 1.7e-05 s⁻¹ | 1360 ± 610 µM
A42C U55A | 1.17e-05 ± 4.9e-06 s⁻¹ |  |  |  |  |  | 

Variant | kcat (glucosamine-6-phosphate [1]) | self-cleavage kobs at 40 uM GlcN6P (glucosamine-6-phosphate [2]) | self-cleavage kobs at 160 uM GlcN6P (glucosamine-6-phosphate [3]) | self-cleavage kobs at 10000 uM GlcN6P (glucosamine-6-phosphate [4]) | self-cleavage kobs at 640 uM GlcN6P (glucosamine-6-phosphate [5]) | self-cleavage kobs at 2500 uM GlcN6P (glucosamine-6-phosphate [6]) | KM (glucosamine-6-phosphate [7])
G43U C67A | 0.00389 ± 0.00036 s⁻¹ | 0.000122 ± 1.7e-05 s⁻¹ | 0.000392 ± 8.9e-05 s⁻¹ | 0.00371 ± 0.0005 s⁻¹ | 0.00129 ± 0.00023 s⁻¹ | 0.00219 ± 0.00043 s⁻¹ | 1310 ± 180 µM
G43U C67U | 5.98e-05 ± 3.8e-06 s⁻¹ |  |  | 5.46e-05 ± 7.3e-06 s⁻¹ |  | 5.2e-05 ± 1.1e-05 s⁻¹ | 699 ± 280 µM
G44A A53G | 0.000575 ± 4.5e-05 s⁻¹ |  |  | 0.000456 ± 4.8e-05 s⁻¹ | 0.000116 ± 2.3e-05 s⁻¹ | 0.000319 ± 6.7e-05 s⁻¹ | 2460 ± 440 µM
A42G C71G | 0.00124 ± 0.0003 s⁻¹ | 0.000167 ± 3.5e-05 s⁻¹ | 0.000264 ± 4.3e-05 s⁻¹ | 0.00158 ± 0.0003 s⁻¹ | 0.000668 ± 8.8e-05 s⁻¹ | 0.000941 ± 0.00016 s⁻¹ | 510 ± 230 µM
A42C G60C | < 1e-05 s⁻¹ | < 1e-05 s⁻¹ | < 1e-05 s⁻¹ |  | < 1e-05 s⁻¹ |  | 
G41A U65A | 0.000213 ± 2.1e-05 s⁻¹ |  |  | 0.000182 ± 3e-05 s⁻¹ | 7.98e-05 ± 1.2e-05 s⁻¹ | 0.000171 ± 3e-05 s⁻¹ | 1040 ± 220 µM
G44A U45A | 0.00079 ± 0.0001 s⁻¹ |  |  | 0.000579 ± 0.0001 s⁻¹ | 0.000128 ± 4.2e-05 s⁻¹ | 0.000439 ± 0.00012 s⁻¹ | 3190 ± 750 µM
G44A U45C | 0.000855 ± 6.9e-05 s⁻¹ |  | 4.01e-05 ± 1.9e-05 s⁻¹ | 0.000674 ± 6.5e-05 s⁻¹ | 0.000171 ± 2.7e-05 s⁻¹ | 0.000496 ± 0.00011 s⁻¹ | 2540 ± 420 µM
A42U U56G | 0.000177 ± 1.9e-05 s⁻¹ |  |  | 0.000125 ± 1.7e-05 s⁻¹ | 2.06e-05 ± 8.1e-06 s⁻¹ | 7.54e-05 ± 1.2e-05 s⁻¹ | 3910 ± 850 µM
G41C U55G | 0.00012 ± 1.1e-05 s⁻¹ |  |  | 9.95e-05 ± 1.2e-05 s⁻¹ |  | 8.8e-05 ± 3.3e-05 s⁻¹ | 1930 ± 750 µM
G41C U55C | 0.000176 ± 4.4e-05 s⁻¹ |  |  | 0.000129 ± 3.9e-05 s⁻¹ |  | 0.00012 ± 3.6e-05 s⁻¹ | 
G41C U47C | 3.99e-05 ± 4.8e-06 s⁻¹ |  |  | 3.66e-05 ± 1.1e-05 s⁻¹ |  |  | 
G44U A52U | 1.54e-05 ± 1.1e-06 s⁻¹ | < 1e-05 s⁻¹ |  |  | < 1e-05 s⁻¹ |  | 
G41U U47C | 0.000156 ± 5.1e-05 s⁻¹ |  |  | 0.000128 ± 2.3e-05 s⁻¹ | 4.55e-05 ± 1.3e-05 s⁻¹ | 0.000205 ± 4.6e-05 s⁻¹ | 
G41A C71G | 0.000168 ± 7.8e-06 s⁻¹ |  |  | 0.000154 ± 1.4e-05 s⁻¹ | 6.55e-05 ± 9.8e-06 s⁻¹ | 0.000106 ± 2.1e-05 s⁻¹ | 1080 ± 150 µM
G43A A53C | 6.63e-05 ± 3.6e-06 s⁻¹ |  | < 1e-05 s⁻¹ |  | < 1e-05 s⁻¹ |  | 
